Assay results: publication PMC4156332

Molecular target: recombinant wild type echinenone-binding protein from Evechinus chloroticus (apo-rEBP) (Evechinus chloroticus)
Assay: SEC; HiPrep 16/60 Sephacryl S-100 HR gel-permeation column, non-reducing conditions, 50 mM HEPES pH 8.0, 0.1 M NaCl, 10% v/v glycerol; final purification step; molecular weights estimated from the manufacturer's column standard curve

Question: With “recombinant wild type echinenone-binding protein from Evechinus chloroticus (apo-rEBP) (natural protein)” as the substance, how does the stoichiometry N read?
Answer: Its stoichiometry N is 2.
